Article PMC4731814

What was measured:
human plasminogen = assay: ELISA; conditions: bacteria OD600 = 0.6 bound to microtiter plates; 1 μM human PLG; parent: est. 0.29; read off a plot
[1] = molecular target: tricellulin first extracellular loop fragment, wild type (human) (UniProt Q8N4S9); assay: SPR; BIAcore X; tricellulin proteins amine-coupled on a CM5 chip; human PLG as analyte at 62.5-1000 nM; HBS-P buffer pH 7.4, 0.15 M NaCl, 37 °C, 30 μl/min; 1:1 Langmuir binding model
[2] = molecular target: tricellulin second extracellular loop fragment (human) (UniProt Q8N4S9); assay: as above
[3] = molecular target: tricellulin first extracellular loop fragment K252A (human) (UniProt Q8N4S9); assay: as above
[4] = molecular target: tricellulin first extracellular loop fragment K217A K252A (human) (UniProt Q8N4S9); assay: as above
[5] = molecular target: tricellulin first extracellular loop fragment K217A (human) (UniProt Q8N4S9); assay: as above

streptococcal surface enolase on GAS strain NIH35 (wild type) (from UniProt P69949) K252L; K255L
response (human plasminogen): 0.23 A450

human plasminogen (natural protein)
Kd [1]: 51.5 nM | koff [1]: 7.13 s⁻¹ | kon [1]: 1.39e+08 M⁻¹ s⁻¹ | Kd [2]: 1270 nM | koff [2]: 0.214 s⁻¹ | kon [2]: 169000 M⁻¹ s⁻¹ | Kd [3]: 3.13 µM | koff [3]: 0.0184 s⁻¹ | kon [3]: 5890 M⁻¹ s⁻¹ | Kd [4]: 1030 nM | koff [4]: 0.0742 s⁻¹ | kon [4]: 72400 M⁻¹ s⁻¹ | Kd [5]: 183 nM | koff [5]: 0.0298 s⁻¹ | kon [5]: 165000 M⁻¹ s⁻¹

streptococcal surface enolase on GAS strain NIH35 (wild type) (from UniProt P69949) K434L; K435L
response (human plasminogen): 0.3 A450

streptococcal surface enolase on GAS strain NIH35 (wild type) (from UniProt P69949) K252L; K255L; K434L; K435L
response (human plasminogen): 0.17 A450
